Source: article PMC11470055

Target: AP-DT/AA-LRRTM2 (UniProt O43300)
Assay: immunostaining of cells or tissue; Nrxn-binding assay: live COS-7 cells expressing biotinylated AP-LRRTM2 (WT or mutants), BirA-ER and EGFP incubated 20 min with Nrxn solution (2 µg Nrxn-1β-Fc + 1.3 µg AlexaFluor647 anti-human Fc), then labelled with mSA-ATTO565 in Tyrode's solution (2 mM CaCl2, pH 7.4) and imaged live; Nrxn1β-Fc surface intensity normalised to AP-LRRTM2 expression

Sequence of UniProt O43300 (O43300 34-516 D259A/T261A): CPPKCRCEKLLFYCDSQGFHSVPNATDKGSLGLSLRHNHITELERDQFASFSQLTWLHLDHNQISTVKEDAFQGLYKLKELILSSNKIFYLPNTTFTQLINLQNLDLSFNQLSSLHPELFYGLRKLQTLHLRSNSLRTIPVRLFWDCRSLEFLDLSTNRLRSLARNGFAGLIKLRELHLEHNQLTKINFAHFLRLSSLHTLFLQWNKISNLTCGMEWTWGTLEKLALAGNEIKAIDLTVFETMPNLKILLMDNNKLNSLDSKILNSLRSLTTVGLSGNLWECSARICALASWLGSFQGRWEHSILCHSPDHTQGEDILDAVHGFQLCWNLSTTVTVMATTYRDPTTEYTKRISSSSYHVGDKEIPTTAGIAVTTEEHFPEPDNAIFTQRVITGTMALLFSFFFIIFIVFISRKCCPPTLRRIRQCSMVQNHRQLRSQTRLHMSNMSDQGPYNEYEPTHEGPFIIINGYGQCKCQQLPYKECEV

## Nrxn1β-Fc (-SS4) (Fc fusion)
  percent loss of Nrxn1β-Fc binding against AP-LRRTM2-WT: 50%
